Results as given in patent publication US20220298260A1 (MYTHIC THERAPEUTICS, published 2022).
Positions count from the first letter of the chain named.

B1: MYT0598 (antibody, V domains shown)
VH: QVQLVQSGAEVVKPGASVKISCKHSGYTFTGYFMNWVKQSPGQSLEWIGRIHPYDGDTFYNQKFQGKATLTVDKSSNTAHMELLSLTSEDFAVYYCTRYDGSRAMDYWGQGTTVTVSS
VL: DIVLTQSPLSLAVSLGQPAIISCKASQSVSFAGTSLMHWYHQKPGQQPRLLIYRASNLEAGVPDRFSGSGSKTDFTLTISPVEAEDAATYYCQQSREYPYTFGGGTKLEIK
notes: IgG
B2: MYT0608 (antibody, V domains shown)
VH: B1 VH with H24A, M34H
VL: B1 VL
notes: IgG
B3: MYT0610 (antibody, V domains shown)
VH: B1 VH with H24A, R50H
VL: B1 VL
notes: IgG
B4: MYT0614 (antibody, V domains shown)
VH: B1 VH with H24A, Y54H
VL: B1 VL
notes: IgG
B5: MYT0615 (antibody, V domains shown)
VH: B1 VH with H24A, D55H
VL: B1 VL
notes: IgG
B6: MYT0599 (antibody, V domains shown)
VH: B1 VH with H24A, S25H
VL: B1 VL
notes: IgG
B7: MYT0606 (antibody, V domains shown)
VH: B1 VH with H24A, Y32H
VL: B1 VL
notes: IgG
B8: MYT0616 (antibody, V domains shown)
VH: B1 VH with H24A, G56H
VL: B1 VL
notes: IgG
B9: MYT0605 (antibody, V domains shown)
VH: B1 VH with H24A, G31H
VL: B1 VL
notes: IgG
B10: MYT0607 (antibody, V domains shown)
VH: B1 VH with H24A, F33H
VL: B1 VL
notes: IgG
B11: MYT0597 (antibody, V domains shown)
VH: B1 VH with K23H, H24A
VL: B1 VL
notes: IgG
B12: MYT0604 (antibody, V domains shown)
VH: B1 VH with H24A, T30H
VL: B1 VL
notes: IgG
B13: MYT0600 (antibody, V domains shown)
VH: B1 VH with H24A, G26H
VL: B1 VL
notes: IgG
B14: MYT0601 (antibody, V domains shown)
VH: B1 VH with H24A, Y27H
VL: B1 VL
notes: IgG
B15: MYT0611 (antibody, V domains shown)
VH: B1 VH with H24A, I51H
VL: B1 VL
notes: IgG
B16: MYT0612 (antibody, V domains shown)
VH: B1 VH with H24A, H52A
VL: B1 VL
notes: IgG
B17: MYT0602 (antibody, V domains shown)
VH: B1 VH with H24A, T28H
VL: B1 VL
notes: IgG

Each binder was assayed against T1, FOLR1 (R&D Systems, Cat #5646-FR) (human, UniProt P15328 25-233) (assay: BLI, IgG on anti-human Fc sensor, 50 nM FOLR1).
T1 construct: Bought soluble protein; also called Folate Receptor 1
T1 sequence (P15328 25-233 limits assumed): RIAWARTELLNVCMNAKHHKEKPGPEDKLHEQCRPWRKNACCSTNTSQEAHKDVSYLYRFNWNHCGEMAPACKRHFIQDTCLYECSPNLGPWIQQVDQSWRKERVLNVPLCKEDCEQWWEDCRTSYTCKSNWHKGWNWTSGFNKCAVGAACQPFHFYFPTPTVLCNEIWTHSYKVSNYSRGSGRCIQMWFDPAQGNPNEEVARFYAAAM

Binding result, binds:
B1, B2, B3, B4, B5, B6, B7, B8, B9, B10, B11, B12, B13, B14, B15, B16, B17
